In the DeepSol protein solubility set:

assay: soluble on expression in E. coli; label from the status in PepcDB or PDB records

Which “soluble on expression in E. coli” value does the source give for “MSLNPFGNALIPDMIADASIQEINGVFYCYATTDGYGQGLKTSGPPVVWKSKDFVHWSFDGTYFPSAAKEKYWAPSKAIFANGKYYIYPTINGYMYPAVADKPEGPFKLARGKDEFYKPFTPSTLLQSKNPGGIDAEIFVDDDGQAYVFWGRRHVAKLNEDMITVDSVVQVISTPRKEYSEGPIFFKRKGIYYYLYTIGGDEKYQYAYVMSRVSPMGPFEAPEQDIISTTNYERGIFGPGHGCVFHPEGTDNYYFAYLEFGRRSTNRQTYVNQLKFNEDGTIRPVELTMDGVGALKKVKSDKKMKIDTVYASSIEVPLKIEPMKDPTCLRTEYFVPSFAVDGANGSRWMAAAEDSINPWIVADLGTVKKVRRSEIYFVRPTAGHAYVIEASMDGKVWQEFAVHQDRKMCSPHTDVLNKRFRYLRIKILKGVPGIWEWNIYEGHHHHHH” here?
The value was “not soluble”.

Which “soluble on expression in E. coli” value does the source give for “MGSDKIHHHHHHLSPEDYYGSNDFWNQKSQVEMFMTGIHADLRDKYQMPVTLGEFRSEILISDVTSMGEGVYGPPMTNNLLTKDNTGIDDWYEVYPNIMHINLFIRNVDKEIDYLTGTEKSFYLGQAYGLRAYYYFYLYRTFGGVPLETEPKVTEGSIDITQLYKARSTPEETLEFIKEDINKSEAFFNESDKKMSNQYEWSYHATELLKAKIYMWSAKVTTGLPDDDIAGDHIATLTAVDPNNSDLLTAKKALLNLVNQQFELLPNFADLWTPEGKKNKEIIFALCFNKNELTNWGANWFYNVALFTNATDLDGNKYGPDPLKLLTAGPLRYEYKVPFIEIYDKEDTRLDATFFQYMFEGKIRGACWKKLMGHTDGGTHYYDSDVPVYRYADVLLMLAECENGLGAPDKCAAYINEVRKRAYGDKFEQHKYIAGDYADNEWAILQERDKEFVGEGSRWFDLLRLRDSNGKPFVFSVKAHYGSSLPILTEDKAYMMLWPVNVEVLNGDPEIKQTPGYE” here?
The value was “not soluble”.

With “MGSDKIHHHHHHMSESAESVELIKLPVSQLTLGMFVSAIDKNDKGQLAIANAGQIKHKDAILKLAKSGIKFVWVDAERSAEHCGLKKKTTNDSQTDNRKAPVSRDKQQAQAKVMLTEAKDLIRKVLSETFEGKAIEVAPFEALADTMIESVMLDADALKCMSALRSKDAYLLEHSVNVAFLLVTFGKYLQLDRDMLRQMAVGGILHDIGKIKVDNKVLHKPGKLTPEEFEHMKLHQVYELEIMNETTGLSQISKDICLMHHEKLDGRGYPRGLKDDEIPRHGRMSCIVDIFDALTATRCYKEAMSPAAAFKILLSLTPFHLDQQLVYEFIRCIGIYPVGSLVELSDGRIGIVWASKDRDALHPIVKCFYSLKVKRYTDVAMVDLLKSELYIERGVSPSSLDIDPTPFY” as the sequence, how does the “soluble on expression in E. coli” value read?
The value was “not soluble”.

Which “soluble on expression in E. coli” value does the source give for “MNHHLLSQAHLDKEKLVILVKEDEKMNSMHKDKPFFPLLIDYMSSGPVVAMLWEGCDVVKRARVILGEELEVGEFRSIFYDLVVRDTHKGCHCSDSVASANREYVLWFEEFKEGTRFD” here?
Its value is “not soluble”.

For “MSPEYAMEGIFSVKSDVFSFGVLVLEIVSGKRNRGFHNSGQDNNLLGYTWENWKEGKGLEIVDSIIVDSSSSMSLFQPHEVLRCIQIGLLCVQERAEDRPKMSSVIVPFCTR”, which “soluble on expression in E. coli” value is on record?
Its value is “not soluble”.

With “MAEVTILGLGNLLWADEGFGVRAAEKLFEQYADNEKVDVVDGGTQGLALLPWLQQTEKLLIMDAIDFGMAPGSLAMFRDEQVPAYLTAKKLSLHQTSFSEVLALLQLTGGQLSEIVLIGVQPECLDDYGGSLTPQVKAQLMPAVYLAQEVLAQWGITASSAALPTERLNHYSLCMERYEDERPDAQSACRVGDIRVLQREKS” as the sequence, how does the “soluble on expression in E. coli” value read?
The value was “not soluble”.

With “MIFGRSQRGKPPVEPVTLKILVAGGFGVGKTTLVGAVSEIRPLRTEELLTEAGRPVDDVSGVEGKHTTTVAMDFGRITLREDLVLYLFGTPGQERFWFMWDELSEGALGAVVLADTRRLEDCFAAIDYFERRSIPFVVGVNCFEGSARYPGETVRQALDLDEDVPLVMCDARDRESVKEVLIGVVQHAMTQAADRRRAVPTLEHHHHHH” as the sequence, how does the “soluble on expression in E. coli” value read?
The value was “not soluble”.

With “MRVARLFRFPVKGFPAEEIPEADVRTGRGIRGDRVAAFTNGSLDIPDDSWHRYSAFTVLKNDTDLQKWQVELDLAEAADSSQPAVADPSATVTLTSPQNETTTFRTDDRDTRATSADFLSARIPPQGDFPRALSVADQGMFDSQAAGVSIINPATVAAISQTADGQAALAPGETELDPLRFRGNVLVDGLAPFEEFALIGKIVRLGGVRLAITQAIERCPATTVNPTTTAVDVNVPRVLASACGHLHCGVYGRILESGLVSTGDEIEIEGDAPRELVKTARTPRFMTVLGSQQICNDIVEVSLRDDQGWIREFDEPGTNLRVHLDLGEPFWRTYTITDVSDDIVSIAVRTQGKGSRAVAELAAGQSVLASGPHGTMTANRVFGGTTALVTAGIGITPSLGLMRGAELSGTEKIKLFHVDRDHRTACLWDRLQKRAHSRQIPVETHHRDTASQGRPGHADLVDWLAGCDNVMVCGPADFTRAVLDASAEAGVPAVHQEIFASPNTGMSEAIAQCSPAEVTLENSGTSFLWEPQQGTLLEALEARGLRADNSCRGGSCGTCAVSLAAGSVIYPVEPAARIAADEVLVCSAVPSGPISLGILEHHHHHH” as the sequence, how does the “soluble on expression in E. coli” value read?
Its value is “not soluble”.

With “MKIEVWSDFVCPFCYMGKRRLEIALNEFEYKTDVEISFKSFELDPSAKKEYSENIHELIAKKYKISVEQAKASNDQIVLQAEAIGLNYNFNKLIPTNTFDAHRLSQYAKTKGKMNELSEKIFKAYFVDSLNISDYKVLADLAEEVGISRDESLRILESNQYNEEVREDEKNASKLGIDAVPYFVFDDKYAVSGAQPAEVFLEALYKIDKE” as the sequence, how does the “soluble on expression in E. coli” value read?
The value was “not soluble”.

For “MSLKIVNITTQVESIELKTPFKTALRQTSHVEFVRVEVECDNGFVGIGEASATKVITGEDIYIILTSIASVEELFLNLTCEEALGALHTKCAIGSSAKASLDIAFVHLLSQEAKKPLYEYFGATDKSALKSDITISLNEADVMLNDAKKAFSNGMDILKIKVGSDILHAIDIVRKIAKELPECDILVDANQAWSFENTVLFIENMLNTPIKLIEQPVEAPNLDGLKKITELSHIPILADEAVFTLKDAKKVIEEKCADMINIKLMKCGGVSKAIEILEFARNREFKCMLGSMLEGPYSINMALHLAFAYRDVIEFVDLDSPLLYKEMPKELDFVFDGCEIKPLEGHHHHHH”, which “soluble on expression in E. coli” value is on record?
The value was “soluble”.

Which “soluble on expression in E. coli” value does the source give for “SDVYNNTAFFEQYMKRRYRENSPNESIEKPVFFQLIGHVQGKQILDLGCGDAKFGAELLEKGCYSYTGIEGSELMYEKAKKQLENKNGSVHFLNLKDYTYPSSTFDLVTSRLALHYIEHLDTIFQNVFQTLKTNGTFTFSVQHPVITSSFESLQTSGKRTIWLVDDYFKLGKRVEPWIDQEVIKYHRTTEEYFTLLQQAGFTITSLKEATPNPTYFQDEEEYKRRLRIPLFLLFSCTK” here?
Its value is “soluble”.

For “MTIKNVICDIDGVLMHDNVAVPGAAEFLHGIMDKGLPLVLLTNYPSQTGQDLANRFATAGVDVPDSVFYTSAMATADFLRRQEGKKAYVVGEGALIHELYKAGFTITDVNPDFVIVGETRSYNWDMMHKAAYFVANGARFIATNPDTHGRGFYPACGALCAGIEKISGRKPFYVGKPSPWIIRAALNKMQAHSEETVIVGDNLRTDILAGFQAGLETILVLSGVSSLDDIDSMPFRPSWIYPSVAEIDVILEHHHHHH”, which “soluble on expression in E. coli” value is on record?
Its value is “not soluble”.

For “MGSDKIHHHHHHMTKARDDRYNFGFLDENTKRMLRRSLLKAVAIPGYQVPFGSREMPLPYGWGTGGIQLTASVIGRDDVLKVIDQGADDTTNAVNIRRFFGRVAGVATTTRTADATLIQTRHRIPETPLKPGQILIFQVPEPEPLRTLEASEVETRKLHAHQEYGLMHVKLYEDIARFGHIATSYDYPVMVNDRYLASPSPIPKFDNPKLDMNPALLLFGAGREKRLYAIPPYTKVESLAFDDHPFEIQSWQQGCAICGSHDSYLDEIVIDDAGSRMFVCSDTDYCQREKQA”, which “soluble on expression in E. coli” value is on record?
The value was “not soluble”.

With “MTAPRDVRVRTLSLLLPEPGRKGRLAAISAAVCHRRDMATYRYLDKDRNVLEEQDFGTVQDAEEHRLSVLGAEIIEEVEDSGTPES” as the sequence, how does the “soluble on expression in E. coli” value read?
Its value is “not soluble”.

Which “soluble on expression in E. coli” value does the source give for “MGSRASTLLRDEELEEIKKETGFSHSQITRLYSRFTSLDKGENGTLSREDFQRIPELAINPLGDRIINAFFSEGEDQVNFRGFMRTLAHFRPIEDNEKSKDVNGPEPLNSRSNKLHFAFRLYDLDKDDKISRDELLQVLRMMVGVNISDEQLGSIADRTIQEADQDGDSAISFTEFVKVLEKVDVEQKMSIRFLHKLAAALEHHHHHH” here?
Its value is “soluble”.

For “MNQWLKKKRESLGYTQESFAKEIGIAKTTYSSYEQGYRNPTVQTAKKMAKILQVPWTIFFDEEVLETYDF”, which “soluble on expression in E. coli” value is on record?
Its value is “not soluble”.

With “MAGWNLEPEYTSLARDFGSLDAVFALQGQQLTRDPLSDVIRVERAGVYYFVKRYVGAGKGLRRYMGKPRVKSEWQNLKRFAKWGIPTAEVVAWGLERNGAAYDRGALITRGLPNTEDLSALAQRKDPRLADRQWVDGISRQLAAYTRIMHDNHFTHNDLKWRNLLVDNEDRLFFIDCPNGAFWWSFMLRYRITKDLACLDKVAKYHLSATQRLRFYLQYRQRARLNAADKKRIRHIVSFFEGRE” as the sequence, how does the “soluble on expression in E. coli” value read?
The value was “not soluble”.

With “MGSDKIHHHHHHMANVVLFGLQDYAELAHYYLEHDSPHQVAAFCVDRQYIPDSGTFKNLPVVAFEDVAHTHPPGDFSFFAPMSPKHMNRDRERIFNAIKAHGYTLISYVSSRATKFDNEIGENCFILEDNTLQPFTRIGDNVVLWSGNHIGHHGRIGDHVTMTSHVVMSGHCDIGAYSFVGVNATLRDGVTIGEGTFVAMASAITKNTEPWSVYRGNPAVKLTMPSTEVKF” as the sequence, how does the “soluble on expression in E. coli” value read?
Its value is “not soluble”.

Which “soluble on expression in E. coli” value does the source give for “YHKLRLAIKEICKTDGIPNIKWGMYIAFGEKLLKSYLKMKAGSASSDMIAEYINNAISAFSSRTGISQETAQKIADFITSNY” here?
Its value is “soluble”.

For “MEKIAILVDVQNVYYTCREQYGRHFDYNQFWSQVTQNRTVVKANAYAIASKDPQQRQFHHILRGIGFEVMLKPFIQRSDGSAKGDWDVGIALDGYELAQEVDTVVLVSGDGDFEPLVTRIAQRFQVKVEVYGVPKLTAQHLIDVASQFHPIEHRLLL”, which “soluble on expression in E. coli” value is on record?
The value was “not soluble”.

With “MELEFKCSDVGVWKEALSSYDSRIESLNKPELVSLDQFYRIKLPCLLHDRDPNPYLTTSELSQLMKWKLSRGKWRPRLLDFVSSLDDSVVKSASEKAFKSLPDISKAVKELTVLKGVGAATASAVLAAYAPDIAPFMSDEAMEVALGNSKDYSLKQYLLFATKLQDKAKELKLKGEWDGPSDIERALWSCTVRAKSQPEKSSSGKKRKR” as the sequence, how does the “soluble on expression in E. coli” value read?
The value was “not soluble”.

With “MQLKTEVFLVEKEILVYIQTKSIGIEDNSIKLKMTPLLKKFANIGDKVYLKHSTFMLPTKIKAKKEDEVLLEFPSLTPEKPLGDRRNVRVLSDPENPVKVRFNEITKEVYDISEVGFSIKCGMEEIDEILKNKEISEVEIYLPNLEEWIKGSARLVNVREFENGDILCGYELFLDTPDEVKVRFYIYERVKEILKGEK” as the sequence, how does the “soluble on expression in E. coli” value read?
The value was “not soluble”.

With “GESSKSGYQTTGENNSSDYQGIIEDGEYKTSKSRGVGISQNSDNLLNLKSFEAGLTTISKDHFSTKSYIFQEGQYLNKATIQDWLGRKSSSNPEGLNPSDNGKKEANKRNPIYVQQIEEQDYMKQNNGKLELAGMTIGIGMNQKDYYQKEQYGATYSTTISKEKRIEEGKIAAKKVLARVRQKVGNNVPIVIAMFAQAPNDSLVGGYFYSYTVSKSGTDIGSWTETNIKSYVLPATEDNKLPNDNDSTSFDNFQKEVKNFFPNISNVTGQGQYKDKTLQGLHITITTQFYSETEITSFTQYVAQAAKSYLPSGIPVDIKINGSDGETQSFVSTTGGNGGYYTHVFGSY” as the sequence, how does the “soluble on expression in E. coli” value read?
Its value is “soluble”.

For “MRVLIVKTSSMGDVLHTLPALTDAQQAIPEIKFDWVVEEGFAQIPSWHAAVERVIPVAIRRWRKAWFSAPIKAERKAFREALQAENYDAVIDAQGLVKSAALVTRLAHGVKHGMDWQTAREPLASLFYNRKHHIAKQQHAVERTRELFAKSLGYSKPQTQGDYAIAQHFLTNLPTDAGEYAVFLHATTRDDKHWPEEHWRELIGLLADSGIRIKLPWGAPHEEERAKRLAEGFAYVEVLPKMSLEGVARVLAGAKFVVSVDTGLSHLTAALDRPNITVYGPTDPGLIGGYGENQVECRSTSMSLADLPAQTVFQNLNLEIITNKLTSEIR”, which “soluble on expression in E. coli” value is on record?
The value was “not soluble”.
